# According to patent US20170313754A1 (PROTAGONIST THERAPEUTICS, published 2017):
# Numbered stars: 1 amine (or outer) side, 2 acyl side, 3 side chain; on linkers, the order of the positions; unused ones are H or OH. Bridge positions count the residues as written; N and C are the ends. Square brackets hold non-standard residues; d marks the D form. Ends that are not written are not given here. * marks the point of attachment. Ida = iminodiacetic acid, O=C(CN(CC(=O)[*:3])[*:1])[*:2]; β3hP = O=C(O)C[C@@H]1CCCN1; Isovaleryl = CC(C)CC(=O)*; Octanoyl = CCCCCCCC(=O)*; Albu = not defined here
# T1: human ferroportin (SLC40A1) fused in frame with GFP, stably expressed in HEK293 cells (human, UniProt Q9NP59 1-571)
# T1 sequence (looked up): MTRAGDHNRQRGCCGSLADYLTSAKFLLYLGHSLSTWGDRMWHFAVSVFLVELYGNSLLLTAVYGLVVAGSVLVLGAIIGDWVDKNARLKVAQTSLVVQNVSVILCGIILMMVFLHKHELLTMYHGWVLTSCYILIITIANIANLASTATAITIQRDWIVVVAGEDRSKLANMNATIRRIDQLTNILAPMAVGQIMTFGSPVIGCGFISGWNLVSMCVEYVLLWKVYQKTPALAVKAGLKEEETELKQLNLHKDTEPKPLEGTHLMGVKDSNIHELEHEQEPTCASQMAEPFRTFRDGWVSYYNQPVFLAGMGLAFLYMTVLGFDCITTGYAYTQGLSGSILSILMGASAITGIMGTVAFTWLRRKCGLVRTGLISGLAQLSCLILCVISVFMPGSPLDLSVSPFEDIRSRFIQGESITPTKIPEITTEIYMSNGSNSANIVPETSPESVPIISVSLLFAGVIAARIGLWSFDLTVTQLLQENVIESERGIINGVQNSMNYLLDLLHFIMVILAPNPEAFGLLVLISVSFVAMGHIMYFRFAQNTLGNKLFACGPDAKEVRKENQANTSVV
# B1: Isovaleric acid-DTHFPCIKFEPHS-K(Albu)-GCK-NH2 (peptide)
# peptide: Isovaleryl-DTHFPCIKFEPHSK(Albu)GCK-NH2
# modifications: not fully specified (bridges); cysteine pairing not given here; reading uncertain
# B2: Hy-DTHF-(D)-Ala-CIIF-NH2 (peptide)
# peptide: H-DTHF[dA]CIIF-NH2
# SMILES: CC[C@H](C)[C@H](NC(=O)[C@H](CS)NC(=O)[C@@H](C)NC(=O)[C@H](Cc1ccccc1)NC(=O)[C@H](Cc1c[nH]cn1)NC(=O)[C@@H](NC(=O)[C@@H](N)CC(=O)O)[C@@H](C)O)C(=O)N[C@H](C(=O)N[C@@H](Cc1ccccc1)C(N)=O)[C@@H](C)CC
# Molecular target: T1, human ferroportin (SLC40A1) fused in …
# Assay: cell-based or functional assay
row,"Potency EC50 (nM), ferroportin-GFP internalization/degradation [nM]",Binder
1,> 10000,H-DTHFPIAIFAAICI-NH2 [Hy-DTHFPIAIFAAICI-NH2]
2,> 10000,H-DTHFPIAICI-NH2 [Hy-DTHFPIAICI-NH2]
3,> 1000,H-DTHFPCIEF-NH2 [Hy-DTHFPCIEF-NH2]
4,> 10000,H-DTHAPCIIF-NH2 [Hy-DTHAPCIIF-NH2]
5,> 10000,H-DTHICIAIF-NH2 [Hy-DTHICIAIF-NH2]
6,> 300,Isovaleryl-HFPCIKFEPRSKGWVCK(Octanoyl)-NH2 (disulfide 4-16 (inferred)) [Isovaleric acid-HFPCIKFEPRSKGWVC-K(octanoic acid)-NH2]
7,> 10000,H-DTHFPIAIFAAGICI-NH2 [Hy-DTHFPIAIFAAGICI-NH2]
8,> 10000,H-DTHFPIAIFAICI-NH2 [Hy-DTHFPIAIFAICI-NH2]
9,6,B1
10,> 1000,[Ida]THF[β3hP]CIIF-NH2 [[Ida]-THF-[bhPro]-CIIF-NH2]
11,> 1000,H-DTHFACIIF-NH2 [Hy-DTHFACIIF-NH2]
12,> 10000,B2
13,> 10000,H-DTHFPIAIFICI-NH2 [Hy-DTHFPIAIFICI-NH2]
14,> 10000,H-DTHFPIICI-NH2 [Hy-DTHFPIICI-NH2]
15,> 1000,H-DTHFPCAIF-NH2 [Hy-DTHFPCAIF-NH2]
16,> 10000,H-DTHFPIAIICI-NH2 [Hy-DTHFPIAIICI-NH2]
17,> 1000,H-DTHFPCIIA-NH2 [Hy-DTHFPCIIA-NH2]
18,502,[Ida]THFPCIKFEPRSKGWVCK(Ac)-NH2 (disulfide 6-18 (inferred)) [[Ida]-THFPCIKFEPRSKGWVC-K(Ac)-NH2]
19,739,H-DTAFPCIIF-NH2 [Hy-DTAFPCIIF-NH2]
20,> 10000,H-DTHCPIAIF-NH2 [Hy-DTHCPIAIF-NH2]
21,> 1000,H-ATHFPCIIF-NH2 [Hy-ATHFPCIIF-NH2]
